Measurements: publication PMC6010203

Target: DS_ConC_SOSIP trimer (ConC_SOSIP with the disulfide 201C-433C) (HIV-1 (clade C consensus))
Assay: negative-stain electron microscopy

With “DS_ConC_SOSIP trimer (ConC_SOSIP with the disulfide 201C-433C) (complex)” the stoichiometry N was 3.
